# From IntAct's records for PubMed 23572552
# B1: Golgi resident protein GCP60 (Homo sapiens), Q9H3P7 (parent)
# chain: MAAVLNAERLEVSVDGLTLSPDPEERPGAEGAPLLPPPLPPPSPPGSGRGPGASGEQPEPGEAAAGGAAEEARRLEQRWGFGLEELYGLALRFFKEKDGKAFHPTYEEKLKLVALHKQVLMGPYNPDTCPEVGFFDVLGNDRRREWAALGNMSKEDAMVEFVKLLNRCCHLFSTYVASHKIEKEEQEKKRKEEEERRRREEEERERLQKEEEKRRREEEERLRREEEERRRIEEERLRLEQQKQQIMAALNSQTAVQFQQYAAQQYPGNYEQQQILIRQLQEQHYQQYMQQLYQVQLAQQQAALQKQQEVVVAGSSLPTSSKVNATVPSNMMSVNGQAKTHTDSSEKELEPEAAEEALENGPKESLPVIAAPSMWTRPQIKDFKEKIQQDADSVITVGRGEVVTVRVPTHEEGSYLFWEFATDNYDIGFGVYFEWTDSPNTAVSVHVSESSDDDEEEEENIGCEEKAKKNANKPLLDEIVPVYRRDCHEEVYAGSHQYPGRGVYLLKFDNSYSLWRSKSVYYRVYYTR
# partner: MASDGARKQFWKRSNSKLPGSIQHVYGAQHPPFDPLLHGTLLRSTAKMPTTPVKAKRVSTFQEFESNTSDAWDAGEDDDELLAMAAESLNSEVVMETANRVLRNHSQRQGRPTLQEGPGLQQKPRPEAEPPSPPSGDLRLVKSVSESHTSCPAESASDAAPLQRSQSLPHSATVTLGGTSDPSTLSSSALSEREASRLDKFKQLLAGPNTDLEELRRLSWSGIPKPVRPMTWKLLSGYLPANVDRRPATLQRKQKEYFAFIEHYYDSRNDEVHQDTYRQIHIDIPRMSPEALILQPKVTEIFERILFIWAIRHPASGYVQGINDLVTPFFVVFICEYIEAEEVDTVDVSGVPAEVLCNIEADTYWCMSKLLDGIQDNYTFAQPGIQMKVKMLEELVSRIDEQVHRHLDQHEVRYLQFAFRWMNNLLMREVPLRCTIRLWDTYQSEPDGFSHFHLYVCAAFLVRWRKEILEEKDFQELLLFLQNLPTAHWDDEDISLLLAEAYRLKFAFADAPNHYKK
# Variants of: B1
# Settings: with tb22a_human TBC1D22A
row,Variant,effect of a mutation on the interaction
1,MAAVLNAERLEVSVDGLTLSPDPEERPGAEGAPLLPPPLPPPSPPGSGRGPGASGEQPEPGEAAAGGAAEEARRLEQRWGFGLEELYGLALRFFKEKDGKAFHPTYEEKLKLVALHKQVLMGPYNPDTCPEVGFFDVLGNDRRREWAALGNMSKEDAMVEFVKLLNRCCHLFSTYVASHKIEKEEQEKKRKEEEERRRREEEERERLQKEEEKRRREEEERLRREEEERRRIEEERLRLEQQKQQIMAALNSQTAAAAQQYAAQQYPGNYEQQQILIRQLQEQHYQQYMQQLYQVQLAQQQAALQKQQEVVVAGSSLPTSSKVNATVPSNMMSVNGQAKTHTDSSEKELEPEAAEEALENGPKESLPVIAAPSMWTRPQIKDFKEKIQQDADSVITVGRGEVVTVRVPTHEEGSYLFWEFATDNYDIGFGVYFEWTDSPNTAVSVHVSESSDDDEEEEENIGCEEKAKKNANKPLLDEIVPVYRRDCHEEVYAGSHQYPGRGVYLLKFDNSYSLWRSKSVYYRVYYTR [V256A;Q257A;F258A],disrupting interaction strength
2,MAAVLNAERLEVSVDGLTLSPDPEERPGAEGAPLLPPPLPPPSPPGSGRGPGASGEQPEPGEAAAGGAAEEARRLEQRWGFGLEELYGLALRFFKEKDGKAFHPTYEEKLKLVALHKQVLMGPYNPDTCPEVGFFDVLGNDRRREWAALGNMSKEDAMVEFVKLLNRCCHLFSTYVASHKIEKEEQEKKRKEEEERRRREEEERERLQKEEEKRRREEEERLRREEEERRRIEEERLRLEQQKQQIMAALNSQTAVQFQQYAAAAAPGNYEQQQILIRQLQEQHYQQYMQQLYQVQLAQQQAALQKQQEVVVAGSSLPTSSKVNATVPSNMMSVNGQAKTHTDSSEKELEPEAAEEALENGPKESLPVIAAPSMWTRPQIKDFKEKIQQDADSVITVGRGEVVTVRVPTHEEGSYLFWEFATDNYDIGFGVYFEWTDSPNTAVSVHVSESSDDDEEEEENIGCEEKAKKNANKPLLDEIVPVYRRDCHEEVYAGSHQYPGRGVYLLKFDNSYSLWRSKSVYYRVYYTR [Q264A;Q265A;Y266A],with no effect
3,MAAVLNAERLEVSVDGLTLSPDPEERPGAEGAPLLPPPLPPPSPPGSGRGPGASGEQPEPGEAAAGGAAEEARRLEQRWGFGLEELYGLALRFFKEKDGKAFHPTYEEKLKLVALHKQVLMGPYNPDTCPEVGFFDVLGNDRRREWAALGNMSKEDAMVEFVKLLNRCCHLFSTYVASHKIEKEEQEKKRKEEEERRRREEEERERLQKEEEKRRREEEERLRREEEERRRIEEERLRLEQQKQQIMAALNSQTAVQFQQYAAQQYPGNYEQQQILIRQLQAAAAQQYMQQLYQVQLAQQQAALQKQQEVVVAGSSLPTSSKVNATVPSNMMSVNGQAKTHTDSSEKELEPEAAEEALENGPKESLPVIAAPSMWTRPQIKDFKEKIQQDADSVITVGRGEVVTVRVPTHEEGSYLFWEFATDNYDIGFGVYFEWTDSPNTAVSVHVSESSDDDEEEEENIGCEEKAKKNANKPLLDEIVPVYRRDCHEEVYAGSHQYPGRGVYLLKFDNSYSLWRSKSVYYRVYYTR [E282A;Q283A;H284A;Y285A],disrupting interaction strength
4,MAAVLNAERLEVSVDGLTLSPDPEERPGAEGAPLLPPPLPPPSPPGSGRGPGASGEQPEPGEAAAGGAAEEARRLEQRWGFGLEELYGLALRFFKEKDGKAFHPTYEEKLKLVALHKQVLMGPYNPDTCPEVGFFDVLGNDRRREWAALGNMSKEDAMVEFVKLLNRCCHLFSTYVASHKIEKEEQEKKRKEEEERRRREEEERERLQKEEEKRRREEEERLRREEEERRRIEEERLRLEQQKQQIMAALNSQTAVQFQQYAAQQYPGNYEQQQILIRQLQEQHYQQYMQQLYQVQLAQQQAALQKQQEVVVAGSSLPTSSKVNATVPSNMMSVNGQAKTHTDAAEKELEPEAAEEALENGPKESLPVIAAPSMWTRPQIKDFKEKIQQDADSVITVGRGEVVTVRVPTHEEGSYLFWEFATDNYDIGFGVYFEWTDSPNTAVSVHVSESSDDDEEEEENIGCEEKAKKNANKPLLDEIVPVYRRDCHEEVYAGSHQYPGRGVYLLKFDNSYSLWRSKSVYYRVYYTR [S344A;S345A],with no effect
5,MAAVLNAERLEVSVDGLTLSPDPEERPGAEGAPLLPPPLPPPSPPGSGRGPGASGEQPEPGEAAAGGAAEEARRLEQRWGFGLEELYGLALRFFKEKDGKAFHPTYEEKLKLVALHKQVLMGPYNPDTCPEVGFFDVLGNDRRREWAALGNMSKEDAMVEFVKLLNRCCHLFSTYVASHKIEKEEQEKKRKEEEERRRREEEERERLQKEEEKRRREEEERLRREEEERRRIEEERLRLEQQKQQIMAALNSQTAVQFQQYAAQQYPGNYEQQQILIRQLQEQHYQQYMQQLYQVQLAQQQAALQKQQEVVVAGSSLPTSSKVNATVPSNMMSVNGQAKTHTDSSEKELEPEAAEEALENGPKESLPVIAAPSMWTRPQIKDFKEKIQQDADSVITVGRGEVVTVRVPTHEEGAAAFWEFATDNYDIGFGVYFEWTDSPNTAVSVHVSESSDDDEEEEENIGCEEKAKKNANKPLLDEIVPVYRRDCHEEVYAGSHQYPGRGVYLLKFDNSYSLWRSKSVYYRVYYTR [S414A;Y415A;L416A],with no effect
6,MAAVLNAERLEVSVDGLTLSPDPEERPGAEGAPLLPPPLPPPSPPGSGRGPGASGEQPEPGEAAAGGAAEEARRLEQRWGFGLEELYGLALRFFKEKDGKAFHPTYEEKLKLVALHKQVLMGPYNPDTCPEVGFFDVLGNDRRREWAALGNMSKEDAMVEFVKLLNRCCHLFSTYVASHKIEKEEQEKKRKEEEERRRREEEERERLQKEEEKRRREEEERLRREEEERRRIEEERLRLEQQKQQIMAALNSQTAVQFQQYAAQQYPGNYEQQQILIRQLQEQHYQQYMQQLYQVQLAQQQAALQKQQEVVVAGSSLPTSSKVNATVPSNMMSVNGQAKTHTDSSEKELEPEAAEEALENGPKESLPVIAAPSMWTRPQIKDFKEKIQQDADSVITVGRGEVVTVRVPTHEEGSYLAAAAATDNYDIGFGVYFEWTDSPNTAVSVHVSESSDDDEEEEENIGCEEKAKKNANKPLLDEIVPVYRRDCHEEVYAGSHQYPGRGVYLLKFDNSYSLWRSKSVYYRVYYTR [F417A;W418A;E419A;F420A],with no effect
7,MAAVLNAERLEVSVDGLTLSPDPEERPGAEGAPLLPPPLPPPSPPGSGRGPGASGEQPEPGEAAAGGAAEEARRLEQRWGFGLEELYGLALRFFKEKDGKAFHPTYEEKLKLVALHKQVLMGPYNPDTCPEVGFFDVLGNDRRREWAALGNMSKEDAMVEFVKLLNRCCHLFSTYVASHKIEKEEQEKKRKEEEERRRREEEERERLQKEEEKRRREEEERLRREEEERRRIEEERLRLEQQKQQIMAALNSQTAVQFQQYAAQQYPGNYEQQQILIRQLQEQHYQQYMQQLYQVQLAQQQAALQKQQEVVVAGSSLPTSSKVNATVPSNMMSVNGQAKTHTDSSEKELEPEAAEEALENGPKESLPVIAAPSMWTRPQIKDFKEKIQQDADSVITVGRGEVVTVRVPTHEEGSYLFWEFATDNYDIGFGVYAAATDSPNTAVSVHVSESSDDDEEEEENIGCEEKAKKNANKPLLDEIVPVYRRDCHEEVYAGSHQYPGRGVYLLKFDNSYSLWRSKSVYYRVYYTR [F433A;E434A;W435A],with no effect
8,MAAVLNAERLEVSVDGLTLSPDPEERPGAEGAPLLPPPLPPPSPPGSGRGPGASGEQPEPGEAAAGGAAEEARRLEQRWGFGLEELYGLALRFFKEKDGKAFHPTYEEKLKLVALHKQVLMGPYNPDTCPEVGFFDVLGNDRRREWAALGNMSKEDAMVEFVKLLNRCCHLFSTYVASHKIEKEEQEKKRKEEEERRRREEEERERLQKEEEKRRREEEERLRREEEERRRIEEERLRLEQQKQQIMAALNSQTAVQFQQYAAQQYPGNYEQQQILIRQLQEQHYQQYMQQLYQVQLAQQQAALQKQQEVVVAGSSLPTSSKVNATVPSNMMSVNGQAKTHTDSSEKELEPEAAEEALENGPKESLPVIAAPSMWTRPQIKDFKEKIQQDADSVITVGRGEVVTVRVPTHEEGSYLFWEFATDNYDIGFGVYFEWTDSPNTAVSVHVSESSDDDEEEEENIGCEEKAKKNANKPLLDEIVPVYRRDCHEEVYAAAAQYPGRGVYLLKFDNSYSLWRSKSVYYRVYYTR [G494A;S495A;H496A],with no effect
9,MAAVLNAERLEVSVDGLTLSPDPEERPGAEGAPLLPPPLPPPSPPGSGRGPGASGEQPEPGEAAAGGAAEEARRLEQRWGFGLEELYGLALRFFKEKDGKAFHPTYEEKLKLVALHKQVLMGPYNPDTCPEVGFFDVLGNDRRREWAALGNMSKEDAMVEFVKLLNRCCHLFSTYVASHKIEKEEQEKKRKEEEERRRREEEERERLQKEEEKRRREEEERLRREEEERRRIEEERLRLEQQKQQIMAALNSQTAVQFQQYAAQQYPGNYEQQQILIRQLQEQHYQQYMQQLYQVQLAQQQAALQKQQEVVVAGSSLPTSSKVNATVPSNMMSVNGQAKTHTDSSEKELEPEAAEEALENGPKESLPVIAAPSMWTRPQIKDFKEKIQQDADSVITVGRGEVVTVRVPTHEEGSYLFWEFATDNYDIGFGVYFEWTDSPNTAVSVHVSESSDDDEEEEENIGCEEKAKKNANKPLLDEIVPVYRRDCHEEVYAGSHQYPGRGVYLLKFDNAAALWRSKSVYYRVYYTR [S511A;Y512A;S513A],with no effect

# Variants of: B1
# Settings: with tb22a_human TBC1D22A
# Remark: another data set of the same source
row,Variant,effect of a mutation on the interaction
1,MAAVLNAERLEVSVDGLTLSPDPEERPGAEGAPLLPPPLPPPSPPGSGRGPGASGEQPEPGEAAAGGAAEEARRLEQRWGFGLEELYGLALRFFKEKDGKAFHPTYEEKLKLVALHKQVLMGPYNPDTCPEVGFFDVLGNDRRREWAALGNMSKEDAMVEFVKAAAACCHLFSTYVASHKIEKEEQEKKRKEEEERRRREEEERERLQKEEEKRRREEEERLRREEEERRRIEEERLRLEQQKQQIMAALNSQTAVQFQQYAAQQYPGNYEQQQILIRQLQEQHYQQYMQQLYQVQLAQQQAALQKQQEVVVAGSSLPTSSKVNATVPSNMMSVNGQAKTHTDSSEKELEPEAAEEALENGPKESLPVIAAPSMWTRPQIKDFKEKIQQDADSVITVGRGEVVTVRVPTHEEGSYLFWEFATDNYDIGFGVYFEWTDSPNTAVSVHVSESSDDDEEEEENIGCEEKAKKNANKPLLDEIVPVYRRDCHEEVYAGSHQYPGRGVYLLKFDNSYSLWRSKSVYYRVYYTR [L164A;L165A;N166A;R167A],with no effect
2,MAAVLNAERLEVSVDGLTLSPDPEERPGAEGAPLLPPPLPPPSPPGSGRGPGASGEQPEPGEAAAGGAAEEARRLEQRWGFGLEELYGLALRFFKEKDGKAFHPTYEEKLKLVALHKQVLMGPYNPDTCPEVGFFDVLGNDRRREWAALGNMSKEDAMVEFVKLLNRAAALFSTYVASHKIEKEEQEKKRKEEEERRRREEEERERLQKEEEKRRREEEERLRREEEERRRIEEERLRLEQQKQQIMAALNSQTAVQFQQYAAQQYPGNYEQQQILIRQLQEQHYQQYMQQLYQVQLAQQQAALQKQQEVVVAGSSLPTSSKVNATVPSNMMSVNGQAKTHTDSSEKELEPEAAEEALENGPKESLPVIAAPSMWTRPQIKDFKEKIQQDADSVITVGRGEVVTVRVPTHEEGSYLFWEFATDNYDIGFGVYFEWTDSPNTAVSVHVSESSDDDEEEEENIGCEEKAKKNANKPLLDEIVPVYRRDCHEEVYAGSHQYPGRGVYLLKFDNSYSLWRSKSVYYRVYYTR [C168A;C169A;H170A],with no effect
